# Experimental data from the supplement of paper PMC7877785.
# ± gives the uncertainty stated by the source.
# Test: self-splicing fitness, log relative to wild type (ln ratio); higher = more splicing; Tetrahymena group I intron in knt gene, E. coli kanamycin selection, DiMSum; sequences stand for … in CUCUCU…GGAGGGAAAAGUUAUCAGGCAUGCACCUGGUAGCUAGUCUUUAAACCAAUAGAUUGCAUCGGUUUAAAAGGCAAGACCGUCAAAUUGCGGGAAAGGGGUCAACAGCCGUUCAGUACCAAGUCUCAGGGGAAACUUUGAGAUGGCCUUGCAAAGGGUAUGGUAAUAAGCUGACGGACAUGGUCCUAACCACGCAGCCAAGUCCUAAGUCAACAGAUCUUCUGUUGAUAUGGAUGCAGUUCACAGACUAAAUGUCGGUCGGGGAAGAUGUAUUCUUCUCAUAAGAUAUAGUCGGACCUCUCCUUAAUGGGAGCUAGCGGAUGAAGUGAUGCAACACUGGAGCCGCUGGGAACUAAUUUGUAUGCGAAAGUAUAUUGAUUAGUUUUGGAGUACUCGUGGUCG
# In short: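 The eight P1ex-region nucleotides of an intron in the knt kanamycin-resistance gene on pET-22b(+) were all randomised and the library put into E. coli BL21(DE3). Six replicate transformations were grown overnight at 37°C or 30°C on LB agar with or without 25 μg/mL kanamycin, together with 100 μg/mL carbenicillin, 50 μM IPTG and 0.2% rhamnose. Colonies were pooled and amplicon-sequenced on an Illumina HiSeq 2500. Fitness from DiMSum is the error-weighted combination of wild-type-normalised replicate fold changes, kanamycin over none.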
Sequence,self-splicing fitness (ln) (30 °C),self-splicing fitness (ln) (37 °C)
UUAUAGCAAUAUUACGGCAU,-2.47 ± 0.18,-2.3 ± 0.25
UUAUAGCAAUAUUACGGCGA,-1.38 ± 0.14,-0.219 ± 0.18
UUAUAGCAAUAUUACGGGCA,-2.37 ± 0.18,-1.32 ± 0.19
UUAUAGCAAUAUUACGGUAC,-2.88 ± 0.28,-2.45 ± 0.41
UUAUAGCAAUAUUACGGUAG,-1.38 ± 0.14,-0.483 ± 0.14
UUAUAGCAAUAUUACGGUCC,-2.8 ± 0.21,-2.93 ± 0.29
UUAUAGCAAUAUUACGUCAA,-1.61 ± 0.26,-0.961 ± 0.22
UUAUAGCAAUAUUACGUGUA,-2.46 ± 0.18,-1.73 ± 0.16
UUAUAGCAAUAUUACGUGUG,-1.63 ± 0.083,-0.419 ± 0.098
UUCAAGCAAUAUUACGAACG,-4.29 ± 0.36,-2.46 ± 0.25
UUCAAGCAAUAUUACGAAGG,-4.7 ± 0.41,-2.95 ± 0.26
UUCAAGCAAUAUUACGAAGU,-3.76 ± 0.37,-0.849 ± 0.23
UUCAAGCAAUAUUACGACGU,-0.831 ± 0.094,0.325 ± 0.13
UUCAAGCAAUAUUACGACUU,-3.86 ± 0.15,-2.65 ± 0.18
UUCAAGCAAUAUUACGAUGC,-3.39 ± 0.45,-1.85 ± 0.28
UUCAAGCAAUAUUACGCAGA,-3.11 ± 0.35,-1.91 ± 0.2
UUCAAGCAAUAUUACGCAUC,-3.87 ± 0.29,-1.81 ± 0.17
UUCAAGCAAUAUUACGCCUG,,-1.64 ± 0.34
UUCAAGCAAUAUUACGCGAU,-2.11 ± 0.16,-3 ± 0.34
UUCAAGCAAUAUUACGCUAG,-2.23 ± 0.23,-2.32 ± 0.26
UUCAAGCAAUAUUACGGACA,-0.496 ± 0.12,0.121 ± 0.11
UUCAAGCAAUAUUACGGAUU,-3.19 ± 0.17,-1.96 ± 0.14
UUCAAGCAAUAUUACGGCUA,-0.138 ± 0.094,-0.12 ± 0.087
UUCAAGCAAUAUUACGGGAG,-1.78 ± 0.098,-0.95 ± 0.097

Sequence,self-splicing fitness (ln) (30 °C),self-splicing fitness (ln) (37 °C)
UUCAAGCAAUAUUACGGGCG,-0.977 ± 0.077,-0.629 ± 0.1
UUCAAGCAAUAUUACGGGGU,-3.57 ± 0.21,-3.15 ± 0.25
UUCAAGCAAUAUUACGGUGG,-1.54 ± 0.12,-0.439 ± 0.13
UUCAAGCAAUAUUACGGUUG,-2.96 ± 0.14,-2.41 ± 0.18
UUCAAGCAAUAUUACGUAAA,-0.739 ± 0.086,-0.541 ± 0.14
UUCAAGCAAUAUUACGUCCU,-1.99 ± 0.12,-1.04 ± 0.14
UUCAAGCAAUAUUACGUCGC,-4.02 ± 0.3,-2.17 ± 0.3
UUCAAGCAAUAUUACGUGGG,-3.07 ± 0.11,-1.97 ± 0.13
UUCCAGCAAUAUUACGAAAA,-0.987 ± 0.11,0.126 ± 0.11
UUCCAGCAAUAUUACGACCU,-2.38 ± 0.26,-3.19 ± 0.39
UUCCAGCAAUAUUACGACGU,-2.06 ± 0.18,-2.18 ± 0.2
UUCCAGCAAUAUUACGAUGG,-2.91 ± 0.24,
UUCCAGCAAUAUUACGAUGU,-3.24 ± 0.12,-2.22 ± 0.16
UUCCAGCAAUAUUACGCAAG,-1.62 ± 0.07,-0.644 ± 0.09
UUCCAGCAAUAUUACGCCAA,-0.739 ± 0.12,-0.362 ± 0.17
UUCCAGCAAUAUUACGCUAU,-2.04 ± 0.085,-0.605 ± 0.083
UUCCAGCAAUAUUACGCUCC,-2.51 ± 0.24,-0.988 ± 0.22
UUCCAGCAAUAUUACGCUGG,-3.73 ± 0.27,-2.51 ± 0.31
UUCCAGCAAUAUUACGGAAC,,-3.19 ± 0.4
UUCCAGCAAUAUUACGGACA,-0.469 ± 0.068,-0.0722 ± 0.077
UUCCAGCAAUAUUACGGAUU,-1.9 ± 0.11,-1.01 ± 0.12
UUCCAGCAAUAUUACGGCAC,-2.78 ± 0.21,-0.351 ± 0.2
UUCCAGCAAUAUUACGGCUU,-1.4 ± 0.11,-0.36 ± 0.1
UUCCAGCAAUAUUACGGGCA,-0.578 ± 0.067,0.454 ± 0.089
